± gives the uncertainty stated by the source.
B1: Nucleolar transcription factor 1, residues 408 to 469; numbered along this chain, P17480 (parent)
chain: KRPVSAMFIFSEEKRRQLQEERPELSESELTRLLARMWNDLSEKKKAKYKAREAALKAQSER

Variants of: B1
Assay: abundance fitness (aPCA) (normalised: wild type 0, dead -1); higher = more abundant; growth selection in yeast, the domain comes from the species named
Conditions: Homo sapiens

Q: For KRPVSAMFIFSEEKRRQLQEERPELSESELTRLLARMWNDLSEKKKAKYIAREAALKAQSER [K50I], which abundance fitness is on record?
A: The abundance fitness was 0.005 ± 0.11.

Q: Which abundance fitness does the source give for KRPVSAMFIFSEEKRRQLQEERPELSESELTRLLARMWNDLSEKKKAKYKAREAALKAHSER [Q59H] here?
A: The abundance fitness was -0.117 ± 0.14.

Q: With KRPVSAMFIFSEEKREQLQEERPELSESELTRLLARMWNDLSEKKKAKYKAREAALKAQSER [R16E] as the variant, how does the abundance fitness read?
A: The abundance fitness was -0.106 ± 0.074.

Q: Which abundance fitness does the source give for KRPVSAMFIFSEEKRHQLQEERPELSESELTRLLARMWNDLSEKKKAKYKAREAALKAQSER [R16H] here?
A: Its abundance fitness is -0.071 ± 0.07.

Q: With KRPVSAMFIFSEEKRRQLVEERPELSESELTRLLARMWNDLSEKKKAKYKAREAALKAQSER [Q19V] as the variant, how does the abundance fitness read?
A: Its abundance fitness is -0.025 ± 0.047.

Q: For KRPVSAMFIFSEEKRRQLHEERPELSESELTRLLARMWNDLSEKKKAKYKAREAALKAQSER [Q19H], which abundance fitness is on record?
A: Its abundance fitness is -0.099 ± 0.084.

Q: Which abundance fitness does the source give for KRPVSAMFIFSEEKRRQLQEERPELSESELTRLLARMWNDLSEKKKAKYKARENALKAQSER [A54N] here?
A: The abundance fitness was -0.033 ± 0.099.

Q: With KRPVSAMFIFSEEKRRQLQEENPELSESELTRLLARMWNDLSEKKKAKYKAREAALKAQSER [R22N] as the variant, how does the abundance fitness read?
A: Its abundance fitness is -0.002 ± 0.089.

Q: With KRPVSAMFIFSEEKRRQLQEEVPELSESELTRLLARMWNDLSEKKKAKYKAREAALKAQSER [R22V] as the variant, how does the abundance fitness read?
A: Its abundance fitness is -0.29 ± 0.053.

Q: For KRPVSAMFIFSEEKRRQLQEEQPELSESELTRLLARMWNDLSEKKKAKYKAREAALKAQSER [R22Q], which abundance fitness is on record?
A: The abundance fitness was -0.058 ± 0.082.

Q: For KRPVSEMFIFSEEKRRQLQEERPELSESELTRLLARMWNDLSEKKKAKYKAREAALKAQSER [A6E], which abundance fitness is on record?
A: Its abundance fitness is -0.17 ± 0.067.

Q: Which abundance fitness does the source give for KRPVSRMFIFSEEKRRQLQEERPELSESELTRLLARMWNDLSEKKKAKYKAREAALKAQSER [A6R] here?
A: The abundance fitness was -0.401 ± 0.047.

Q: For KRPVSFMFIFSEEKRRQLQEERPELSESELTRLLARMWNDLSEKKKAKYKAREAALKAQSER [A6F], which abundance fitness is on record?
A: The abundance fitness was -0.573 ± 0.093.

Q: For KRPVSSMFIFSEEKRRQLQEERPELSESELTRLLARMWNDLSEKKKAKYKAREAALKAQSER [A6S], which abundance fitness is on record?
A: Its abundance fitness is -0.191 ± 0.076.

Q: For KRPVSAMFIFSEEKRRQLQEERPELSHSELTRLLARMWNDLSEKKKAKYKAREAALKAQSER [E27H], which abundance fitness is on record?
A: Its abundance fitness is -0.4 ± 0.12.

Q: With KRPVSAMFIFSEEKRRQLQEERPELSASELTRLLARMWNDLSEKKKAKYKAREAALKAQSER [E27A] as the variant, how does the abundance fitness read?
A: The abundance fitness was -0.143 ± 0.06.

Q: Which abundance fitness does the source give for KRPVSAMFIFSEEKRRQLQEERPELSCSELTRLLARMWNDLSEKKKAKYKAREAALKAQSER [E27C] here?
A: Its abundance fitness is -0.165 ± 0.1.

Q: With KRPVSAMFIFSEEKRRQLQEERPELSESELTRQLARMWNDLSEKKKAKYKAREAALKAQSER [L33Q] as the variant, how does the abundance fitness read?
A: Its abundance fitness is -0.092 ± 0.083.

Q: With KRPVSAMFAFSEEKRRQLQEERPELSESELTRLLARMWNDLSEKKKAKYKAREAALKAQSER [I9A] as the variant, how does the abundance fitness read?
A: The abundance fitness was -0.095 ± 0.068.

Q: With KRPVSAMFIFSEEKRRQLQEERPELSESELTRLLARMWNDRSEKKKAKYKAREAALKAQSER [L41R] as the variant, how does the abundance fitness read?
A: Its abundance fitness is -0.57 ± 0.054.

Q: With KRPVSAMFIFSEEKRRQLQEERPELSESELTRLLARMWNDLSEKKKAYYKAREAALKAQSER [K48Y] as the variant, how does the abundance fitness read?
A: The abundance fitness was -0.209 ± 0.18.

Q: For KRPVSAMFIFSEEKRRQLQEERPELSESELTRLLARMWNDLSEKKKAEYKAREAALKAQSER [K48E], which abundance fitness is on record?
A: Its abundance fitness is 0.104 ± 0.24.

Q: Which abundance fitness does the source give for KRPVSAMFIFVEEKRRQLQEERPELSESELTRLLARMWNDLSEKKKAKYKAREAALKAQSER [S11V] here?
A: The abundance fitness was 0.024 ± 0.049.

Q: Which abundance fitness does the source give for KRPVSAMFIFSEEKRRQLQEERPELSESELTRLLARMWNDLSEKKKAKYKARGAALKAQSER [E53G] here?
A: The abundance fitness was -0.142 ± 0.081.

Q: With KRPHSAMFIFSEEKRRQLQEERPELSESELTRLLARMWNDLSEKKKAKYKAREAALKAQSER [V4H] as the variant, how does the abundance fitness read?
A: The abundance fitness was -0.172 ± 0.15.

Q: Which abundance fitness does the source give for KRPVSAMFIFSEEKRRQLQEERSELSESELTRLLARMWNDLSEKKKAKYKAREAALKAQSER [P23S] here?
A: Its abundance fitness is -0.21 ± 0.06.

Q: For KRPVSAMFIFSEEKRRSLQEERPELSESELTRLLARMWNDLSEKKKAKYKAREAALKAQSER [Q17S], which abundance fitness is on record?
A: Its abundance fitness is -0.016 ± 0.053.

Q: Which abundance fitness does the source give for KRPVSAMFIFSEEKRRTLQEERPELSESELTRLLARMWNDLSEKKKAKYKAREAALKAQSER [Q17T] here?
A: The abundance fitness was -0.026 ± 0.092.

Q: Which abundance fitness does the source give for KRPVSAMFIFSEEKRRQLQEERPELSESELTRLLARMWNDLSEKKKHKYKAREAALKAQSER [A47H] here?
A: The abundance fitness was -0.295 ± 0.2.

Q: With KRPVSAMFIFSEEKRRQLQEERPELSESELTRLEARMWNDLSEKKKAKYKAREAALKAQSER [L34E] as the variant, how does the abundance fitness read?
A: The abundance fitness was -0.287 ± 0.081.

Q: For KRPVSAMFIFSEWKRRQLQEERPELSESELTRLLARMWNDLSEKKKAKYKAREAALKAQSER [E13W], which abundance fitness is on record?
A: The abundance fitness was -0.355 ± 0.054.

Q: For KRPVSAMFIFSEVKRRQLQEERPELSESELTRLLARMWNDLSEKKKAKYKAREAALKAQSER [E13V], which abundance fitness is on record?
A: Its abundance fitness is -0.187 ± 0.079.

Q: With KRPVSAMFIFSEEKRRQLQEERPELSESELTRLLARMWQDLSEKKKAKYKAREAALKAQSER [N39Q] as the variant, how does the abundance fitness read?
A: The abundance fitness was -0.015 ± 0.058.

Q: For KRPVSAMFIFSEEKRRQLQEERPELSESELTRLLARMWLDLSEKKKAKYKAREAALKAQSER [N39L], which abundance fitness is on record?
A: Its abundance fitness is -0.122 ± 0.049.

Q: With KRVVSAMFIFSEEKRRQLQEERPELSESELTRLLARMWNDLSEKKKAKYKAREAALKAQSER [P3V] as the variant, how does the abundance fitness read?
A: The abundance fitness was -0.02 ± 0.09.

Q: Which abundance fitness does the source give for KRPVSAMFIFSEEKRRQLQEERPELSESELTRLLARMWNDLSEKKKAKYKAREAALKNQSER [A58N] here?
A: Its abundance fitness is 0.013 ± 0.059.

Q: With KRPVSAMFIFSEEKRRQLQEERPELSESELTRLLARMWNDLSAKKKAKYKAREAALKAQSER [E43A] as the variant, how does the abundance fitness read?
A: Its abundance fitness is -0.001 ± 0.099.

Q: For KRPVSAMFIFSEEKRRQLQEERPELSESELTRLLARMWNDLSGKKKAKYKAREAALKAQSER [E43G], which abundance fitness is on record?
A: The abundance fitness was -0.231 ± 0.073.

Q: For KRPVSAMFIFSEEKRRQLQEERPELSESELTRLLARMWNDLSEKKTAKYKAREAALKAQSER [K46T], which abundance fitness is on record?
A: Its abundance fitness is -0.393 ± 0.089.

Q: For KRPVSAMFIFSEEKRRQLQEERPELSESELTRLLARMWNDLSEKKMAKYKAREAALKAQSER [K46M], which abundance fitness is on record?
A: The abundance fitness was -0.336 ± 0.07.

Q: For KRPVSAMFIFSEEKRRQLQSERPELSESELTRLLARMWNDLSEKKKAKYKAREAALKAQSER [E20S], which abundance fitness is on record?
A: Its abundance fitness is -0.016 ± 0.055.

Q: With KRPVSAMFIFSEEKRRQLQEERPWLSESELTRLLARMWNDLSEKKKAKYKAREAALKAQSER [E24W] as the variant, how does the abundance fitness read?
A: Its abundance fitness is -0.083 ± 0.064.

Q: For KRPVSAMFIFSEEKRRQLQEERPDLSESELTRLLARMWNDLSEKKKAKYKAREAALKAQSER [E24D], which abundance fitness is on record?
A: Its abundance fitness is 0.03 ± 0.099.

— the Human Domainome abundance scans (Beltran et al. 2025)
